Laboratory results: patent US7618621B2, “Mammalian multipotent neural stem cells and compositions, methods of preparation and methods of administration thereof” (The Board of Trustees of the University of Illinois, priority 2002, dated 2009)

Assays:
[1] = test system: human NSCs; assay: Retinal differentiation of human NSCs in vitro (opsin immunocytochemistry); format: cell-based; conditions: for differentiation of NSCs into retinal cells (opsin staining): FIG. 7(II), serum-free differentiation, 20 ng/ml IGF-1, 100 ng/ml TGF-b3, 10 ng/ml CNTF; for differentiation of NSCs into opsin-positive cells: factor for 3 days before, or for 5 days during, spontaneous differentiation in serum-free condition, 50 ng/ml
Description: Two kinds of differentiation studies were performed: treatment of human NSCs with factors (i) before and (ii) during spontaneous differentiation under a basal media condition. In the first example, NSCs were differentiated under a serum-free differentiation condition in the presence of TGF-b3 (R&D, 50 ng/ml (1 ng/ml to 1 ug/ml)) and VEGF (R&D, 50 ng/ml (1 ng/ml to 1 ug/ml)) for 5 days in Lab-Teck II chamber slides (Nalge Nunc). The second example elucidated whether pretreatment of NSCs is sufficient to produce retinal lineages in these cells. The NSCs were treated with these factors for 3 days, and then differentiated for 5 days under the serum-free differentiation condition in the absence of these factors in the Lab-Teck II chamber slides. As a control, human NSCs were differentiated for 5 days in a no-factor treatment under a serum-free differentiation condition. After differentiation, cells were examined by double-immunofluorescent-cytochemistry (Kim et al., 2002, Proc. Natl. Acad. Sci. U S A 99: 4020-5) with antibodies in a combination of goat anti-GFAP (1:100, Research Diagnostics) and mouse anti-B-tubulin (1:700, Sigma) or mouse anti-opsin (1:200, Chemicon). […] No opsin-positive cells were detected in the spontaneous differentiation without TGF-b3 (FIG. 7b), the treated cells were positive for bIII-tubulin and GFAP (FIG. 7a).

[2] = test system: rat retina; assay: Transplantation of pretreated NSCs into the rat vitreous cavity (opsin immunocytochemistry, human opsin ISHH); format: in vivo; conditions: FIG. 8(II); 8 days after transplantation to rat eye; NSCs exposed for four days to 20 ng/ml IGF-1, 100 ng/ml TGF-b3 or 10 ng/ml CNTF
[3] = test system: MeSCs; assay: Retinal cell differentiation of MeSCs with growth factor treatment; format: cell-based; conditions: without BrdU pre-treatment

| Molecule | differentiation of NSCs into retinal cells (opsin staining) [1] | differentiation of transplanted NSCs to opsin-expressing cells in vivo [2] | differentiation of NSCs into opsin-positive cells [1] | retinal cell-differentiation of MeSCs [3] |
| --- | --- | --- | --- | --- |
| IGF-1: insulin-like growth factor-1 | can differentiate into retinal cells | differentiated to opsin-expressing cells in vivo | – | – |
| VEGF | – | – | no opsin-positive cells were detectable | not sufficient to confer retinal cell-differentiation |
| TGF-b3: human recombinant transforming growth factor beta 3 (R&D) (protein, UniProt P10600 301-412, looked up) Transforming growth factor …: ALDTNYCFRNLEENCCVRPLYIDFRQDLGWKWVHEPKGYYANFCSGPCPYLRSADTTHSTVLGLYNTLNPEASASPCCVPQDLEPLTILYYVGRTPKVEQLSNMVVKSCKCS | can differentiate into retinal cells | differentiated to opsin-expressing cells in vivo | differentiated into opsin-positive cells | not sufficient to confer retinal cell-differentiation |
| CNTF: ciliary neurotrophic factor (protein, UniProt P26441 1-200, looked up) Ciliary neurotrophic factor: MAFTEHSPLTPHRRDLCSRSIWLARKIRSDLTALTESYVKHQGLNKNINLDSADGMPVASTDQWSELTEAERLQENLQAYRTFHVLLARLLEDQQVHFTPTEGDFHQAIHTLLLQVAAFAYQIEELMILLEYKIPRNEADGMPINVGDGGLFEKKLWGLKVLQELSQWTVRSIHDLRFISSHQTGIPARGSHYIANNKKM | can differentiate into retinal cells | differentiated to opsin-expressing cells in vivo | – | – |
